# Source: paper PMC10397247
# T1: O16-bN
# T1 chain: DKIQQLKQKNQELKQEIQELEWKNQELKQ
# T2: O4-bN
# T2 chain: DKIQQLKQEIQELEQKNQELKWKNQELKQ
# T3: O9-bN
# T3 chain: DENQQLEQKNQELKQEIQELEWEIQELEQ
# T4: O8-bN
# T4 chain: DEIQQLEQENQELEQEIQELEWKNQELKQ
# T5: O3-bN
# T5 chain: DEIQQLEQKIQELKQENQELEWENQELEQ
# T6: O7-bN
# T6 chain: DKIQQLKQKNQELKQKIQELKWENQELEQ
# T7: O5-bN
# T7 chain: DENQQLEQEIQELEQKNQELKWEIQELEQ
# T8: O6-bN
# T8 chain: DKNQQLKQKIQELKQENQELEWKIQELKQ
# T9: O15-bN
# T9 chain: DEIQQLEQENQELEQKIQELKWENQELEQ
# T10: O2-bN
# T10 chain: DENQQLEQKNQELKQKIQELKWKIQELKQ
# T11: 4H775-AA
# T11 chain: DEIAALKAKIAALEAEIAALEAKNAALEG
# T12: O11-AA
# T12 chain: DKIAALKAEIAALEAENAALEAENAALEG
# T13: 4H390-AA
# T13 chain: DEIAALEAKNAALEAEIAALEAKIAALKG
# T14: 4H510-AA
# T14 chain: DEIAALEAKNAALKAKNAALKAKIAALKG
# T15: 4H2873-AA
# T15 chain: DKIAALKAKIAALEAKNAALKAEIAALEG
# T16: 4H2888-AA
# T16 chain: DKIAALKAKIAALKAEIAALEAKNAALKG
# T17: 4H2736-AA
# T17 chain: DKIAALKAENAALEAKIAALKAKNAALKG
# T18: 4H816-AA
# T18 chain: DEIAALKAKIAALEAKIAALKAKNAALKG
# T19: O13-AA
# T19 chain: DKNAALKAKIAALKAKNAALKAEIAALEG
# T20: 4H3409-AA
# T20 chain: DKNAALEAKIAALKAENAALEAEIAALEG
# T21: 4H384-AA
# T21 chain: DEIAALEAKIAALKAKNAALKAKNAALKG
# T22: 4H87-AA
# T22 chain: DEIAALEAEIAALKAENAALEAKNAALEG
# T23: 4H2705-AA
# T23 chain: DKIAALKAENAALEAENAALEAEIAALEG
# T24: 4H451-AA
# T24 chain: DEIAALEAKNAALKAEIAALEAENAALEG
# T25: 4H3905-AA
# T25 chain: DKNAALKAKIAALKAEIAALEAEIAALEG
# T26: 4H2758-AA
# T26 chain: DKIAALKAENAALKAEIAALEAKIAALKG
# T27: 4H2985-AA
# T27 chain: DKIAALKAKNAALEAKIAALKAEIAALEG
# T28: 4H3134-AA
# T28 chain: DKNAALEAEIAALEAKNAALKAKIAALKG
# T29: 4H3590-AA
# T29 chain: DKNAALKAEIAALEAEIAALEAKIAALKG
# T30: 4H3625-AA
# T30 chain: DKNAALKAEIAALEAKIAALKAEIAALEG
# T31: 4H_APH
# T31 chain: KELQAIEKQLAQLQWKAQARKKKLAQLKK
# T32: 4H4038-AA
# T32 chain: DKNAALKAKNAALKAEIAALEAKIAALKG
# T33: 4H3940-AA
# T33 chain: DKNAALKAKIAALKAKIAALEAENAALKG
# T34: 4H43-AA
# T34 chain: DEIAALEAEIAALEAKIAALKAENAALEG
# T35: 4H_BCR
# T35 chain: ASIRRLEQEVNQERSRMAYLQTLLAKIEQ
# T36: 4H278-AA
# T36 chain: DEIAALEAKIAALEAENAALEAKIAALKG
# T37: 4H3587-AA
# T37 chain: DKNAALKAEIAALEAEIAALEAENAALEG
# T38: 4H3049-AA
# T38 chain: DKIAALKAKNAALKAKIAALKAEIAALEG
# T39: O14-AA
# T39 chain: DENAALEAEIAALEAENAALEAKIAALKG
# T40: 4H337-AA
# T40 chain: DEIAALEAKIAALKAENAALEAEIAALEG
# T41: 4H796-bA
# T41 chain: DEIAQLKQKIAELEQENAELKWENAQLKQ
# T42: 4H56-bA
# T42 chain: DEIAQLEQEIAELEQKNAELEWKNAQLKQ
# T43: 4H730-bA
# T43 chain: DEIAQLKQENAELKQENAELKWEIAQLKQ
# T44: O15-bP
# T44 chain: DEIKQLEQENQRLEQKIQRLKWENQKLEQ
# T45: 4H932-bA
# T45 chain: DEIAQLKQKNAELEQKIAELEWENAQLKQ
# T46: 4H949-bA
# T46 chain: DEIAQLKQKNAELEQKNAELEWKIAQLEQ
# T47: 4H349-bA
# T47 chain: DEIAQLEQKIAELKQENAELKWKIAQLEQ
# Assays:
# O16-bN = target: T1, O16-bN; assay: two-hybrid library CCNG1;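 note: natural log of median RNA to DNA barcode read ratio; higher means stronger binding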
# O4-bN = target: T2, O4-bN; assay: two-hybrid library CCNG1;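 note: natural log of median RNA to DNA barcode read ratio; higher means stronger binding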
# O9-bN = target: T3, O9-bN; assay: two-hybrid library CCNG1;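 note: natural log of median RNA to DNA barcode read ratio; higher means stronger binding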
# O8-bN = target: T4, O8-bN; assay: two-hybrid library CCNG1;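 note: natural log of median RNA to DNA barcode read ratio; higher means stronger binding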
# O3-bN = target: T5, O3-bN; assay: two-hybrid library CCNG1;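 note: natural log of median RNA to DNA barcode read ratio; higher means stronger binding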
# O7-bN = target: T6, O7-bN; assay: two-hybrid library CCNG1;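 note: natural log of median RNA to DNA barcode read ratio; higher means stronger binding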
# O5-bN = target: T7, O5-bN; assay: two-hybrid library CCNG1
# O6-bN = target: T8, O6-bN; assay: two-hybrid library CCNG1
# O15-bN = target: T9, O15-bN; assay: two-hybrid library CCNG1
# O2-bN = target: T10, O2-bN; assay: two-hybrid library CCNG1
# 4H775-AA = target: T11, 4H775-AA; assay: two-hybrid library CCmax; conditions: mean of both orientations
# O11-AA = target: T12, O11-AA; assay: two-hybrid library CCmax; conditions: mean of both orientations
# 4H390-AA = target: T13, 4H390-AA; assay: two-hybrid library CCmax; conditions: mean of both orientations
# 4H510-AA = target: T14, 4H510-AA; assay: two-hybrid library CCmax; conditions: mean of both orientations
# 4H2873-AA = target: T15, 4H2873-AA; assay: two-hybrid library CCmax; conditions: mean of both orientations
# 4H2888-AA = target: T16, 4H2888-AA; assay: two-hybrid library CCmax; conditions: mean of both orientations
# 4H2736-AA = target: T17, 4H2736-AA; assay: two-hybrid library CCmax; conditions: mean of both orientations
# 4H816-AA = target: T18, 4H816-AA; assay: two-hybrid library CCmax; conditions: mean of both orientations
# O13-AA = target: T19, O13-AA; assay: two-hybrid library CCmax; conditions: mean of both orientations
# 4H3409-AA = target: T20, 4H3409-AA; assay: two-hybrid library CCmax; conditions: mean of both orientations
# 4H384-AA = target: T21, 4H384-AA; assay: two-hybrid library CCmax; conditions: mean of both orientations
# 4H87-AA = target: T22, 4H87-AA; assay: two-hybrid library CCmax; conditions: mean of both orientations
# 4H2705-AA = target: T23, 4H2705-AA; assay: two-hybrid library CCmax
# 4H451-AA = target: T24, 4H451-AA; assay: two-hybrid library CCmax; conditions: mean of both orientations
# 4H3905-AA = target: T25, 4H3905-AA; assay: two-hybrid library CCmax; conditions: mean of both orientations
# GCN2_T = assay: two-hybrid library CCmax; conditions: mean of both orientations
# 4H2758-AA = target: T26, 4H2758-AA; assay: two-hybrid library CCmax; conditions: mean of both orientations
# 4H2985-AA = target: T27, 4H2985-AA; assay: two-hybrid library CCmax
# 4H3134-AA = target: T28, 4H3134-AA; assay: two-hybrid library CCmax; conditions: mean of both orientations
# 4H_GCN4 = assay: two-hybrid library CCmax; conditions: mean of both orientations
# 4H_GCN4, sequence (chain, as listed by the source): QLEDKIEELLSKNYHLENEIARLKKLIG
# 4H3590-AA = target: T29, 4H3590-AA; assay: two-hybrid library CCmax; conditions: mean of both orientations
# 4H3625-AA = target: T30, 4H3625-AA; assay: two-hybrid library CCmax; conditions: mean of both orientations
# 4H_APH = target: T31, 4H_APH; assay: two-hybrid library CCmax; conditions: mean of both orientations
# 4H4038-AA = target: T32, 4H4038-AA; assay: two-hybrid library CCmax; conditions: mean of both orientations
# 4H3940-AA = target: T33, 4H3940-AA; assay: two-hybrid library CCmax; conditions: mean of both orientations
# 4H43-AA = target: T34, 4H43-AA; assay: two-hybrid library CCmax; conditions: mean of both orientations
# 4H_BCR = target: T35, 4H_BCR; assay: two-hybrid library CCmax; conditions: mean of both orientations
# 4H278-AA = target: T36, 4H278-AA; assay: two-hybrid library CCmax; conditions: mean of both orientations
# 4H3587-AA = target: T37, 4H3587-AA; assay: two-hybrid library CCmax; conditions: mean of both orientations
# 4H3049-AA = target: T38, 4H3049-AA; assay: two-hybrid library CCmax; conditions: mean of both orientations
# O14-AA = target: T39, O14-AA; assay: two-hybrid library CCmax; conditions: mean of both orientations
# 4H337-AA = target: T40, 4H337-AA; assay: two-hybrid library CCmax; conditions: mean of both orientations
# 4H796-bA = target: T41, 4H796-bA; assay: two-hybrid library CCNG1
# 4H56-bA = target: T42, 4H56-bA; assay: two-hybrid library CCNG1
# 4H730-bA = target: T43, 4H730-bA; assay: two-hybrid library CCNG1
# O15-bP = target: T44, O15-bP; assay: two-hybrid library CCNG1
# 4H932-bA = target: T45, 4H932-bA; assay: two-hybrid library CCNG1
# 4H949-bA = target: T46, 4H949-bA; assay: two-hybrid library CCNG1
# 4H349-bA = target: T47, 4H349-bA; assay: two-hybrid library CCNG1
binder,measurement,setting,value
DEIQQLEQENQELEQKIQELKWENQELEQ [O15-bN],interaction score,O16-bN,1.92
same,interaction score,O4-bN,0.275
same,interaction score,O9-bN,-0.491
same,interaction score,O8-bN,-1.62
same,interaction score,O3-bN,-0.189
same,interaction score,O7-bN,1.29
same,interaction score,O5-bN,-0.822
same,interaction score,O6-bN,-0.314
same,interaction score,O15-bN,-0.195
same,interaction score,O2-bN,-1.5
DKIAALKAENAALEAENAALEAEIAALEG [4H2705-AA],interaction score,4H775-AA,-1.89
same,interaction score,O11-AA,-1.81
same,interaction score,4H390-AA,-0.544
same,interaction score,4H510-AA,1.88
same,interaction score,4H2873-AA,-1.27
same,interaction score,4H2888-AA,-1.97
same,interaction score,4H2736-AA,-1.45
same,interaction score,4H816-AA,-1.52
same,interaction score,O13-AA,-1.17
same,interaction score,4H3409-AA,-1.62
same,interaction score,4H384-AA,1.45
same,interaction score,4H87-AA,-1.62
same,interaction score,4H2705-AA,-1.4
same,interaction score,4H451-AA,-1.84
same,interaction score,4H3905-AA,-1.49
same,interaction score,GCN2_T,-1.4
same,interaction score,4H2758-AA,-1.01
same,interaction score,4H2985-AA,-0.31
same,interaction score,4H3134-AA,-0.0637
same,interaction score,4H_GCN4,-1.71
same,interaction score,4H3590-AA,-1.6
same,interaction score,4H3625-AA,-2.01
same,interaction score,4H_APH,-1.6
same,interaction score,4H4038-AA,0.153
same,interaction score,4H3940-AA,-1.62
same,interaction score,4H43-AA,-1.82
same,interaction score,4H_BCR,-1.75
same,interaction score,4H278-AA,-0.473
same,interaction score,4H3587-AA,-1.78
same,interaction score,4H3049-AA,1.67
same,interaction score,O14-AA,-1.68
same,interaction score,4H337-AA,-0.896
DEIAQLEQKIAELKQENAELKWKIAQLEQ [4H349-bA],interaction score,4H796-bA,-0.458
same,interaction score,4H56-bA,-0.982
same,interaction score,4H730-bA,-0.854
same,interaction score,O15-bP,0.584
same,interaction score,4H932-bA,-0.919
same,interaction score,4H949-bA,-1.01
same,interaction score,4H349-bA,0.649
